T1: HPV16 major capsid protein L1 (human papillomavirus type 16, UniProt P03101 1-505, disulfide-linked to other L1 chains in the virions)
T1 construct: major capsid protein L1 of human papillomavirus type 16, expressed from the capsid expression plasmid pXULL; Assembled with L2 and the HPV16 genome into virions; source: 293TT, transfected with pXULL (L1 and L2 expression plasmid), in virions purified by CsCl density gradient
T1 sequence: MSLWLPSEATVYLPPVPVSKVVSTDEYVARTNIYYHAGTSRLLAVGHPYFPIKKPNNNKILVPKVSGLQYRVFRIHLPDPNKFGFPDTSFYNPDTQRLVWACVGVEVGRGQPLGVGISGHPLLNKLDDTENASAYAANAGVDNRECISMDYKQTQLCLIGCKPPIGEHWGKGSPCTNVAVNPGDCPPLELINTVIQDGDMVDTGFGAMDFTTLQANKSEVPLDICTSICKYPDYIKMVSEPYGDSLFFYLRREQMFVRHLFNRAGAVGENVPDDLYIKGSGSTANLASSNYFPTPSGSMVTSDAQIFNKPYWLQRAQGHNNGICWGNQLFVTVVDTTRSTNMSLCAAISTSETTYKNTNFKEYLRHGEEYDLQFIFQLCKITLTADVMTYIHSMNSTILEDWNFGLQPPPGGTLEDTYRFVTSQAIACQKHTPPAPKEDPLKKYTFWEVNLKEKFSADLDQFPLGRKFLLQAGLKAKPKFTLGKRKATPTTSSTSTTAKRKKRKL


Tests used:
[1] = biological target: T1, HPV16 major capsid protein L1; experiment: co-sedimentation; CsCl-purified virions; SDS-PAGE and Coomassie staining-based densitometry; data not shown; conditions: partners not purified
[2] = biological target: the molecule itself; experiment: non-reducing denaturing SDS-PAGE with immunoblot; purified virions reacted with 2 mM NEM for 1.5 h at room temperature, mixed with non-reducing SDS loading buffer (2% SDS), 7.5% gel, immunoblot for L1 and L2; shows only disulfide-linked species

| Binder | molecules L2 per virion [1] | stoichiometry N [2] |
| --- | --- | --- |
| HPV16 minor capsid protein L2, wild type (natural protein, intramolecular disulfide bond C22-C28, minor capsid protein L2 of human papillomavirus type 16, expressed from pXULL; AAD33258 is the entry used for the alignment and gi 4927726 the one searched in mass spectrometry; Assembled with L1 into virions; also called wild type L2; source: 293TT, transfected with pXULL (L1 and L2 expression plasmid), in virions purified by CsCl density gradient) MRHKRSAKRTKRASATQLYKTCKQAGTCPPDIIPKVEGKTIAEQILQYGSMGVFFGGLGIGTGSGTGGRTGYIPLGTRPPTATDTLAPVRPPLTVDPVGPSDPSIVSLVEETSFIDAGAPTSVPSIPPDVSGFSITTSTDTTPAILDINNTVTTVTTHNNPTFTDPSVLQPPTPAETGGHFTLSSSTISTHNYEEIPMDTFIVSTNPNTVTSSTPIPGSRPVARLGLYSRTTQQVKVVDPAFVTTPTKLITYDNPAYEGIDVDNTLYFSSNDNSINIAPDPDFLDIVALHRPALTSRRTGIRYSRIGNKQTLRTRSGKSIGAKVHYYYDLSTIDPAEEIELQTITPSTYTTTSHAASPTSINNGLYDIYADDFITDTSTTPVPSVPSTSLSGYIPANTTIPFGGAYNIPLVSGPDIPINITDQAPSLIPIVPGSPQYTIIADAGDFYLHPSYYMLRKRRKRLPYFFSDVSLAA | ~22 molecules L2 per virion | – |
| HPV16 L2 C22/28S (natural protein, minor capsid protein L2 of human papillomavirus type 16 with C22S and C28S, expressed from a pXULL variant made by site directed mutagenesis; Assembled with L1 into virions; also called double mutant; source: 293TT, transfected with mutant pXULL, in virions purified by CsCl density gradient) MRHKRSAKRTKRASATQLYKTSKQAGTSPPDIIPKVEGKTIAEQILQYGSMGVFFGGLGIGTGSGTGGRTGYIPLGTRPPTATDTLAPVRPPLTVDPVGPSDPSIVSLVEETSFIDAGAPTSVPSIPPDVSGFSITTSTDTTPAILDINNTVTTVTTHNNPTFTDPSVLQPPTPAETGGHFTLSSSTISTHNYEEIPMDTFIVSTNPNTVTSSTPIPGSRPVARLGLYSRTTQQVKVVDPAFVTTPTKLITYDNPAYEGIDVDNTLYFSSNDNSINIAPDPDFLDIVALHRPALTSRRTGIRYSRIGNKQTLRTRSGKSIGAKVHYYYDLSTIDPAEEIELQTITPSTYTTTSHAASPTSINNGLYDIYADDFITDTSTTPVPSVPSTSLSGYIPANTTIPFGGAYNIPLVSGPDIPINITDQAPSLIPIVPGSPQYTIIADAGDFYLHPSYYMLRKRRKRLPYFFSDVSLAA | ~22 molecules L2 per virion | – |
| HPV16 L2 C28S (natural protein, minor capsid protein L2 of human papillomavirus type 16 with C28S, expressed from a pXULL variant made by site directed mutagenesis; Assembled with L1 into virions; also called single C28S mutant; source: 293TT, transfected with mutant pXULL, in virions purified by CsCl density gradient) MRHKRSAKRTKRASATQLYKTCKQAGTSPPDIIPKVEGKTIAEQILQYGSMGVFFGGLGIGTGSGTGGRTGYIPLGTRPPTATDTLAPVRPPLTVDPVGPSDPSIVSLVEETSFIDAGAPTSVPSIPPDVSGFSITTSTDTTPAILDINNTVTTVTTHNNPTFTDPSVLQPPTPAETGGHFTLSSSTISTHNYEEIPMDTFIVSTNPNTVTSSTPIPGSRPVARLGLYSRTTQQVKVVDPAFVTTPTKLITYDNPAYEGIDVDNTLYFSSNDNSINIAPDPDFLDIVALHRPALTSRRTGIRYSRIGNKQTLRTRSGKSIGAKVHYYYDLSTIDPAEEIELQTITPSTYTTTSHAASPTSINNGLYDIYADDFITDTSTTPVPSVPSTSLSGYIPANTTIPFGGAYNIPLVSGPDIPINITDQAPSLIPIVPGSPQYTIIADAGDFYLHPSYYMLRKRRKRLPYFFSDVSLAA | ~22 molecules L2 per virion | 2 |
| HPV16 L2 C22S (natural protein, minor capsid protein L2 of human papillomavirus type 16 with C22S, expressed from a pXULL variant made by site directed mutagenesis; Assembled with L1 into virions; also called single C22S mutant; source: 293TT, transfected with mutant pXULL, in virions purified by CsCl density gradient) MRHKRSAKRTKRASATQLYKTSKQAGTCPPDIIPKVEGKTIAEQILQYGSMGVFFGGLGIGTGSGTGGRTGYIPLGTRPPTATDTLAPVRPPLTVDPVGPSDPSIVSLVEETSFIDAGAPTSVPSIPPDVSGFSITTSTDTTPAILDINNTVTTVTTHNNPTFTDPSVLQPPTPAETGGHFTLSSSTISTHNYEEIPMDTFIVSTNPNTVTSSTPIPGSRPVARLGLYSRTTQQVKVVDPAFVTTPTKLITYDNPAYEGIDVDNTLYFSSNDNSINIAPDPDFLDIVALHRPALTSRRTGIRYSRIGNKQTLRTRSGKSIGAKVHYYYDLSTIDPAEEIELQTITPSTYTTTSHAASPTSINNGLYDIYADDFITDTSTTPVPSVPSTSLSGYIPANTTIPFGGAYNIPLVSGPDIPINITDQAPSLIPIVPGSPQYTIIADAGDFYLHPSYYMLRKRRKRLPYFFSDVSLAA | ~22 molecules L2 per virion | 2 |
